Experimental data reported in patent US20260008803A1.

Legend:
FcγRIIIa [1] = target: FcγRIIIa (UniProt P08637); assay: SPR; fold improvement in binding avidity against commercial rituximab
FcγRIIIa [2] = target: FcγRIIIa (UniProt P08637); assay: SPR (Biacore T200, single cycle kinetics, 25 C); antibody captured by anti-human Fab, FcγRIIIa as analyte; 1:1 Langmuir fit
FcγRIIIa [3] = target: FcγRIIIa (UniProt P08637); assay: SPR; fold improvement in binding avidity, commercial rituximab as the reference

Sequence of FcγRIIIa (P08637 17-208 limits assumed): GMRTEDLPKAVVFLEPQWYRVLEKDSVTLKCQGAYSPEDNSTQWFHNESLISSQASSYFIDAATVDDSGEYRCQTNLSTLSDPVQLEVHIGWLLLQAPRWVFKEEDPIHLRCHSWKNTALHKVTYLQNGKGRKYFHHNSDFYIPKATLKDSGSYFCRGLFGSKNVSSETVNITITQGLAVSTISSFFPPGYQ

Substance: Rituximab IgG1 homogeneous glycoform with α2,6-linked Neu5Ac-terminated biantennary N-glycan (G2S2, without core fucose) (antibody)
- Fold (FcγRIIIa [1]): 39.9 fold
- Kd (FcγRIIIa [2]): 7.67 nM
- koff (FcγRIIIa [2]): 0.00206 s⁻¹
- kon (FcγRIIIa [2]): 268000 M⁻¹ s⁻¹

Substance: Rituximab IgG1 homogeneous glycoform with α2,6-linked 3F^ax-Neu5Ac-terminated biantennary N-glycan (without core fucose) (antibody)
- Fold (FcγRIIIa [1]): 37.4 fold
- Kd (FcγRIIIa [2]): 8.18 nM
- koff (FcγRIIIa [2]): 0.002 s⁻¹
- kon (FcγRIIIa [2]): 244000 M⁻¹ s⁻¹

Substance: Rituximab (commercial sample; Rituxan, Roche) (antibody)
- Fold (FcγRIIIa [3]): 1 fold
- Kd (FcγRIIIa [2]): 306 nM
- koff (FcγRIIIa [2]): 0.0705 s⁻¹
- kon (FcγRIIIa [2]): 231000 M⁻¹ s⁻¹
